In patent US20250059285A1:

Molecular target: cynomolgus Gal10-His (WGS isoform) (cynomolgus)
Test: SPR Biacore 3000 on cynomolgus Gal10 (WGS isoform)

- Kd: 1.5 nM
B1: g7B07-mIgG1 (antibody, V domains shown)
VH: EVQLLESGGGLVQPGGSLRLSCAASGFTFRSYDMSWVRQAPGKGLEWVSAIKNGGGITYYADSVKGRFTISRDNSKNTLYLQMNSLRAEDTAVYYCATTHGIGTLGFGSWGQGTLVTVSS
VL: SYELTQPLSVSVALGQTARITCDGNNIGSKSAQWYQQKPGQAPVLVIYADEYRPEGIPERFSGSNSGNTATLTISRAQAGDEADYYCQVWDGSAAVFGGGTQLTVL
